Results published in the supplement of paper PMC7125110.
± gives the standard error. This sample holds only a part of the variants without activity.

B1: glmS ribozyme (parent)
chain: AUAAAAGCGCCAGAACUACAGAAAUGUAGUUGACGAGGAGGAGGUUUAUCGAAUUUUCGGCGGAUGCCUCCAAA

Key:
Settings in all cases: with glucosamine-6-phosphate
glucosamine-6-phosphate [1] = variants of: B1; test: self-cleavage kobs at 160 uM GlcN6P; higher = faster cleavage; RNA array
Summary of the method: (§1)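 Ribozyme variants carrying barcodes were transcribed in situ on sequenced MiSeq chips by E. coli RNA polymerase and tracked at 37 °C with a hybridised Cy3 probe. They were exposed to 40 μM to 10 mM glucosamine-6-phosphate in HEPES/KCl/Mg(OAc)2 buffer. kobs came from exponential decay fits of normalised per-tile medians, and kcat and KM from weighted Michaelis–Menten fits.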

glucosamine-6-phosphate [2] = variants of: B1; test: self-cleavage kobs at 640 uM GlcN6P; higher = faster cleavage; RNA array
Summary of the method: as §1

glucosamine-6-phosphate [3] = variants of: B1; test: self-cleavage kobs at 2500 uM GlcN6P; higher = faster cleavage; RNA array
Summary of the method: as §1

glucosamine-6-phosphate [4] = variants of: B1; test: self-cleavage kobs at 10000 uM GlcN6P; higher = faster cleavage; RNA array
Summary of the method: as §1

Variant	self-cleavage kobs at 160 uM GlcN6P (glucosamine-6-phosphate [1]) [s⁻¹]	self-cleavage kobs at 640 uM GlcN6P (glucosamine-6-phosphate [2]) [s⁻¹]	self-cleavage kobs at 2500 uM GlcN6P (glucosamine-6-phosphate [3]) [s⁻¹]	self-cleavage kobs at 10000 uM GlcN6P (glucosamine-6-phosphate [4]) [s⁻¹]
C16U A42G A48U G66U	< 1e-05	< 1e-05	–	–
G13C A14C U55G G59U	< 1e-05	< 1e-05	–	–
A12U A15C U45C A48C	< 1e-05	–	< 1e-05	–
A12G A14C G60C	< 1e-05	< 1e-05	–	–
C11U A12C G43C	< 1e-05	–	< 1e-05	–
C10U G32C A36G A39U	< 1e-05	< 1e-05	< 1e-05	–
A15G C34U G63A	< 1e-05	–	< 1e-05	–
C10U G40A	< 1e-05	–	–	< 1e-05
A14C G32C G35U U57A	< 1e-05	< 1e-05	–	–
A15G C16A G60U	< 1e-05	< 1e-05	< 1e-05	–
A15G U46G G66A C68U	6.94e-05 ± 1.7e-05	0.000307 ± 0.00014	0.00078 ± 0.00029	–
C16U U65A U69A	3.44e-05 ± 1.7e-05	0.000105 ± 2.4e-05	4.97e-05 ± 1.7e-05	2.63e-05 ± 1.2e-05
A15C A48C	< 1e-05	–	–	4.99e-05 ± 1.2e-05
G13C A36G G63C	< 1e-05	< 1e-05	–	–
A14C U47A C58G C67G U69C	7.17e-05 ± 3.1e-05	9.78e-05 ± 3.1e-05	–	–
A14U C50U G51U	< 1e-05	< 1e-05	< 1e-05	< 1e-05
A12C G59A G63C	< 1e-05	< 1e-05	–	–
G13A C58A	5.76e-05 ± 2.1e-05	0.000121 ± 2.5e-05	0.000307 ± 7.3e-05	–
A15G C16G U55A	0.000205 ± 6e-05	0.000405 ± 0.00011	0.00143 ± 0.0004	–
C11G U47A	< 1e-05	< 1e-05	–	< 1e-05
C11G A33U U49C C50U U65C	< 1e-05	–	–	–
C10G G41C G63U	< 1e-05	< 1e-05	–	–
C10G G29A G62U C71U	< 1e-05	< 1e-05	< 1e-05	–
A14C C16G G38A A48G U49A	< 1e-05	–	–	–
A14U C34A G60A C61A	< 1e-05	–	–	< 1e-05
A14G A36C G44C G51A G62A	< 1e-05	–	–	–
C11U G40C G43A G60U U69G C70U	< 1e-05	–	< 1e-05	–

Variant	self-cleavage kobs at 160 uM GlcN6P (glucosamine-6-phosphate [1]) [s⁻¹]	self-cleavage kobs at 640 uM GlcN6P (glucosamine-6-phosphate [2]) [s⁻¹]	self-cleavage kobs at 2500 uM GlcN6P (glucosamine-6-phosphate [3]) [s⁻¹]	self-cleavage kobs at 10000 uM GlcN6P (glucosamine-6-phosphate [4]) [s⁻¹]
A12G U49A G63U	< 1e-05	< 1e-05	–	–
C10U C16A U65A	< 1e-05	< 1e-05	< 1e-05	< 1e-05
A12G U46C A48U	< 1e-05	–	–	–
G13U G44U	< 1e-05	–	–	–
A12U A14U U45A	0.000413 ± 0.0001	0.00157 ± 0.00031	0.00242 ± 0.00082	–
G29C C61U C71U	< 1e-05	–	–	–
C10U A12C U31G A42G	< 1e-05	–	–	–
C11U C61A G63C	< 1e-05	< 1e-05	–	–
C10G U31C A48U C61A C70G	< 1e-05	< 1e-05	–	–
A15C U30A C67A	0.000277 ± 6.8e-05	0.000357 ± 8.3e-05	0.0013 ± 0.0005	–
A12U A15G C16G U30C A33U A48G G66A	< 1e-05	< 1e-05	–	–
C16G A42G A53G C67G	0.000151 ± 3.4e-05	0.000268 ± 5.9e-05	0.000323 ± 8.1e-05	–
C16A G35C U47G	< 1e-05	–	< 1e-05	–
A15G G29U C34U	< 1e-05	–	–	–
G13U A42C U54A U55G	< 1e-05	< 1e-05	< 1e-05	–
A14C A36G U46G U65A	< 1e-05	< 1e-05	–	–
A12C G40C C61G	< 1e-05	< 1e-05	< 1e-05	< 1e-05
G13U A14U U57C	< 1e-05	–	< 1e-05	–
A15U C34A A64G	< 1e-05	–	< 1e-05	–
C11U U56G	4.58e-05 ± 1.6e-05	0.000297 ± 5.6e-05	0.000254 ± 9.7e-05	0.00158 ± 0.00036
A14G C16U C34A G41A A52C	< 1e-05	–	< 1e-05	–
A12G A36C U65A	< 1e-05	< 1e-05	< 1e-05	< 1e-05
C16G A48G C68A C71G	5.61e-05 ± 2.2e-05	0.000118 ± 3.8e-05	–	–
A14G C16U U46C	0.000248 ± 7.7e-05	–	–	–
G13U A14C G32A U46C G63A C68U U69G C71U	< 1e-05	< 1e-05	–	–
C16U G37A G40C G43A	< 1e-05	< 1e-05	< 1e-05	< 1e-05
